From PMC4451130

How the values were obtained:
[1] = molecular target: Glu-plasminogen (Plg) (human); assay: ELISA
[2] = molecular target: Fibrinogen (FG), human plasma, plasminogen-depleted (human) (UniProt P02671); assay: ELISA
Chain of UniProt P02671 (P02671 36-866, chain 1 of 3): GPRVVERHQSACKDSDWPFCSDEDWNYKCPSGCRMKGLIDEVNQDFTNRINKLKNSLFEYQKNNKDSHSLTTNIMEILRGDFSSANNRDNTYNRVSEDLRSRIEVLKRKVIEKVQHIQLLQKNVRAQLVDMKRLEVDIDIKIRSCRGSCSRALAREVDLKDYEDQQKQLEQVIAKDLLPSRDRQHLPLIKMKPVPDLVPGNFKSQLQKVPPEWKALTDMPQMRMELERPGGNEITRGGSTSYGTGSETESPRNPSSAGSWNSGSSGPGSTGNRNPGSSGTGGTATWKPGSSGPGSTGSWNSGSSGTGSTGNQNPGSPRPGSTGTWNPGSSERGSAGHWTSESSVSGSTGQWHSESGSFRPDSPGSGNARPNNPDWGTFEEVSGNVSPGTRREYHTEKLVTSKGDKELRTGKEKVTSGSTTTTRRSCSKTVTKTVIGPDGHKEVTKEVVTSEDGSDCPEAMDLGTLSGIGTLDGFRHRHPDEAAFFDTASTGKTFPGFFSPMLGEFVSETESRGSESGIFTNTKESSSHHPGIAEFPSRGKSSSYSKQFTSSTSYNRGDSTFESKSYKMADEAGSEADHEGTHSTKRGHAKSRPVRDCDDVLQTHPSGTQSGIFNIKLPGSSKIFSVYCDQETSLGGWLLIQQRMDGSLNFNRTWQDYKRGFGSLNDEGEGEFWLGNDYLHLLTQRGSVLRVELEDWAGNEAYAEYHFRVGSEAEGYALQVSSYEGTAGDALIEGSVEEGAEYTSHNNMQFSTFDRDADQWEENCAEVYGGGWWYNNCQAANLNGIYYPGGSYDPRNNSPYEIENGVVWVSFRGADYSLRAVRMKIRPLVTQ
Chain of UniProt P02671 (P02675 45-491, chain 2 of 3, further chain): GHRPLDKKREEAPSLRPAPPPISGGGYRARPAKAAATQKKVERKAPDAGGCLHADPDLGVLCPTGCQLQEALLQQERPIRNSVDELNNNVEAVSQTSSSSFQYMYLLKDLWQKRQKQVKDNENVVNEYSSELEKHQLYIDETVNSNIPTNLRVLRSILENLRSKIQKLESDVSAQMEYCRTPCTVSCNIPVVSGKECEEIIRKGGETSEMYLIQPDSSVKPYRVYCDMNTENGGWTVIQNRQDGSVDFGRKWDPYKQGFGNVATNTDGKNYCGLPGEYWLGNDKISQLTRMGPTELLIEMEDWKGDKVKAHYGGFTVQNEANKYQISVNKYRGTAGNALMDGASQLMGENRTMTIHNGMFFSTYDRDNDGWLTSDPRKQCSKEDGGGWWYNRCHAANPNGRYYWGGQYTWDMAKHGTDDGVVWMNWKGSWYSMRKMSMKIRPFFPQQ
Chain of UniProt P02671 (P02679 27-453, chain 3 of 3, further chain): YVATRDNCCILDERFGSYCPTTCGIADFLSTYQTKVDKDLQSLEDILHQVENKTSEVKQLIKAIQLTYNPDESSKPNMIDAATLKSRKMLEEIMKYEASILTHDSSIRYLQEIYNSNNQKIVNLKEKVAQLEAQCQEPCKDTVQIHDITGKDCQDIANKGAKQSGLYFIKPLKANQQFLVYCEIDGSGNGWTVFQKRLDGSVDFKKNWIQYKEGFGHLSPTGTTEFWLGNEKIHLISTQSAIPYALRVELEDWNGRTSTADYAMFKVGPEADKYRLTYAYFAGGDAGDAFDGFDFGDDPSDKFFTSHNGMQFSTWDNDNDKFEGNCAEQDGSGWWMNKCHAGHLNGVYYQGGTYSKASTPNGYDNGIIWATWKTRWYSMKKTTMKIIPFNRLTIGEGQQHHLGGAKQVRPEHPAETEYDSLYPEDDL

Chain of Glu-plasminogen (Plg) (human) (P00747 20-810): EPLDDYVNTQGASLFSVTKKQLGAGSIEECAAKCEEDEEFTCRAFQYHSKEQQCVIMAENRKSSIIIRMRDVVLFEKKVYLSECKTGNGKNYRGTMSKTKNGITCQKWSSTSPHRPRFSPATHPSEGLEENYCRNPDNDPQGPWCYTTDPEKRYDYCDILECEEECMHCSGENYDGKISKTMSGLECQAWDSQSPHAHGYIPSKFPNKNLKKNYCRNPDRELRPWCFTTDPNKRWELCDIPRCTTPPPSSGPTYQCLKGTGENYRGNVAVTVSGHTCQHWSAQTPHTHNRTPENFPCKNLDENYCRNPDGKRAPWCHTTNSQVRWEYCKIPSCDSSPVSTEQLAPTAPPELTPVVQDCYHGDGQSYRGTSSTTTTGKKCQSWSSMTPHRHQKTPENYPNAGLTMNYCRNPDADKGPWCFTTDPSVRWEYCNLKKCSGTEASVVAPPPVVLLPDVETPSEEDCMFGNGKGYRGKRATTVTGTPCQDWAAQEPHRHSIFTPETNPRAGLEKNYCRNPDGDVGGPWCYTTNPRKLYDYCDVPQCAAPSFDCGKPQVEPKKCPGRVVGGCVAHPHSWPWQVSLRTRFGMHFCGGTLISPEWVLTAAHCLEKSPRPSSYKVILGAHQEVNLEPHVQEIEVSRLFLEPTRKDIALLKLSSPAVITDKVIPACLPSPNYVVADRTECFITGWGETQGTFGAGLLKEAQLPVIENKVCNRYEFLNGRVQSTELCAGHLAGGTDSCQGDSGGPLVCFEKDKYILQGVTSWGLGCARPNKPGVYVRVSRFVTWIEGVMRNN

- Kd [1]: 66.7 nM
- Kd [2]: 31.2 nM
Substance: Biotin-conjugated PTX3 (b-PTX3) (from UniProt P26022 18-381) (natural protein)
